{
  "source": "patent US7572770B2",
  "about": "“Use of an interleukin 1 receptor antagonist and/or pyrrolidinedithiocarbamate for the treatment or prophylaxis of type 2 diabetes” (University of Zurich, priority 2002, dated 2009)",
  "key": {"human islets β-cells": {"tested_on": "human islets β-cells", "experiment": "Detection of IL-1β expressing β-cells in cultured human islets (double immunostaining)", "type": "cell-based", "details": "33.3 mM glucose, 4 days, co-incubation with IL-1Ra", "description": "Islet isolation and culture. Islets were isolated from pancreases of eleven organ donors at the Department of Surgery, University of Geneva Medical Center, as described (32-34). The islet purity was >95%, as judged by dithizone staining (if this degree of purity was not primarily achieved by routine isolation, islets were handpicked). […] For long-term in vitro studies, the islets were cultured on extracellular matrix-coated plates derived from bovine corneal endothelial cells (Novamed Ltd., Jerusalem, Israel), allowing the cells to attach to the dishes and spread, preserving their functional integrity (7;35). Islets were cultured in CMRL 1066 medium containing 100 U/ml penicillin, 100 μg/ml streptomycin and 10% fetal calf serum (Gibco, Gaithersburg, Md.), hereinafter referred to as culture medium. Two days after plating, when most islets were attached and began to flatten, the medium was changed to culture medium containing 5.5, 11.1 or 33.3 mM glucose. In some experiments, islets were additionally cultured with 2 ng/ml recombinant human IL-1β, 1000 U/ml recombinant human IFNγ (ReproTech EC Ltd, London, UK), 500 ng/ml IL-1β receptor antagonist (IL-1Ra) (R&D Systems Inc., Minneapolis, Minn.), 1 ng/ml membrane bound Fas-ligand (FasL) (36) (upstate biotechnology, Lake Placid, N.Y.) or with 100 μM pyrrolidinedithiocarbamate (PDTC; Sigma; 2 h per 2 d of culture). […]"}, "[1]": {"details": "cited from earlier work"}, "Fas": {"tested_on": "Fas", "experiment": "Fas expression in human islets (Western blot, RT-PCR, immunostaining)", "type": "cell-based", "details": "33.3 mM glucose with IL-1Ra", "description": "Western blot analysis. Islets were cultured in a culture medium in non-adherent plastic dishes. One day after isolation, the medium was changed and groups of 200 islets were incubated for 44 hours in culture medium containing 5.5 or 33.3 mM glucose without or with 2 ng/ml IL-1β or 500 ng/ml IL-1Ra. At the end of the incubations, islets were washed in PBS, suspended in 50 μl sample buffer containing 125 mM Tris-HCl, pH 6.8, 4% SDS, 10% glycerol, 0.3% bromphenol blue, 1.8% β-mercaptoethanol and boiled for 5 min. Equivalent amounts of each treatment group were run on 15% SDS polyacrylamide gels. […] Intensity of bands was analyzed using Multianalyst™ (Bio Rad, Laboratories inc., Hercules, Calif.).\nRNA extraction, RT-PCR and sequencing of RT-PCR product. […] The conditions of the PCR amplification for IL-1β and Fas were: denaturation 30 seconds at 94° C., annealing 30 seconds at 60° C. and elongation 30 seconds at 72° C., followed for real time PCR by quantification 5 seconds at 80° C., 45 cycles. […] For quantitative analysis, we used the Light Cycler quantitative PCR system (Roche, Basel, Switzerland) and performed quantitative PCR with a commercial kit (Light Cycler-DNA Master SYBR Green I; Roche). […]"}},
  "data": [
    {"substance": "Interleukin 1 receptor antagonist [IL-1Ra]", "values": [
      {"measurement": "IL-1β positive β-cells (double immunostaining)", "setting": "human islets β-cells", "value": "displayed similar results"},
      {"measurement": "patients with infections", "setting": "[1]; human, in vivo", "value": 40, "unit": "%"},
      {"measurement": "patients with serious infections", "setting": "[1]; human, in vivo", "value": 1.8, "unit": "%"},
      {"measurement": "patients developing neutropenia (absolute neutrophil count 1×10^9/l or less)", "setting": "[1]; placebo-controlled trials, rheumatoid arthritis", "value": 0.3, "unit": "%"},
      {"measurement": "patients requiring discontinuation of treatment (injection site reactions)", "setting": "[1]; rheumatoid arthritis patients", "value": "up to 5%"},
      {"measurement": "most commonly reported adverse effects", "setting": "[1]; subcutaneous treatment, rheumatoid arthritis patients", "value": "Injection site reactions"},
      {"measurement": "glucose-dependent induction of Fas-receptor protein and mRNA", "setting": "Fas", "value": "hindered"}
    ]}
  ]
}
